From patent US5296352

Molecular target: recombinant hirudin variant HV1 (Hirudo medicinalis)

“Staphylococcus aureus strain V8 protease (from UniProt P0C1U8) (enzyme)” showed an extent of digestion (cleavage of rHV1) of 97%.

In the case of lysyl endopeptidase (enzyme), the extent of digestion (cleavage of rHV1) was 100%.
